Data reported in patent US10562947B2, “Compositions and methods for preventing or treating diseases, conditions or processes characterized by aberrant fibroblast proliferation and extracellular matrix deposition” (MOERAE MATRIX, INC., priority 2011, dated 2020).

Columns and labels:
Test in all cases: Kinase Profiling Assay
Type in all cases: biochemical
Details in all cases: 100 μM peptide
PKCζ(h) = biological target: T1, PKCζ(h) (Homo sapiens, UniProt Q05513)
T1 construct: purchased Millipore (IC50 Profiler Express service)
T1 sequence (Q05513 1-592): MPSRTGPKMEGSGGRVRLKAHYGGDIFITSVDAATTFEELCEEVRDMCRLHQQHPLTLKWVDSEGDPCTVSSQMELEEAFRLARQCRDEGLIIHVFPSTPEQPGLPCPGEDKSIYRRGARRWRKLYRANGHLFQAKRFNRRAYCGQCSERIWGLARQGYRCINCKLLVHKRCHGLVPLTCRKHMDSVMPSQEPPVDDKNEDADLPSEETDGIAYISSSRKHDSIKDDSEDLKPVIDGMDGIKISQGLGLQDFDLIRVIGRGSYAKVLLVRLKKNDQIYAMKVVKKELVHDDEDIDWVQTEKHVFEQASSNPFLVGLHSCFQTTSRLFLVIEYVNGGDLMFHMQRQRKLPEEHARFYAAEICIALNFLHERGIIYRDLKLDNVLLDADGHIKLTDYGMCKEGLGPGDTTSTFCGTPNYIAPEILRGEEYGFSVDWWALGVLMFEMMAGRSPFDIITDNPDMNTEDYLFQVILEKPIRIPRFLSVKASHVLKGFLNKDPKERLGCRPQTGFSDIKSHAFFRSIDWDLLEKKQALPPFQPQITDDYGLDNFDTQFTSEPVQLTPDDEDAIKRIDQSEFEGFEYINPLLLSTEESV
Description: (§1) Every kinase activity measurement was conducted in duplicate.
(§2) In addition to determining the IC50 of the compound, the specificity of MK2 inhibitory peptides was assessed by examining activities of all 266 human kinases available for testing in the Millipore kinase profiling service (Table 1).

MELK(h) = MELK(h) (Homo sapiens, UniProt Q14680)
Sequence of MELK(h) (Q14680 whole entry): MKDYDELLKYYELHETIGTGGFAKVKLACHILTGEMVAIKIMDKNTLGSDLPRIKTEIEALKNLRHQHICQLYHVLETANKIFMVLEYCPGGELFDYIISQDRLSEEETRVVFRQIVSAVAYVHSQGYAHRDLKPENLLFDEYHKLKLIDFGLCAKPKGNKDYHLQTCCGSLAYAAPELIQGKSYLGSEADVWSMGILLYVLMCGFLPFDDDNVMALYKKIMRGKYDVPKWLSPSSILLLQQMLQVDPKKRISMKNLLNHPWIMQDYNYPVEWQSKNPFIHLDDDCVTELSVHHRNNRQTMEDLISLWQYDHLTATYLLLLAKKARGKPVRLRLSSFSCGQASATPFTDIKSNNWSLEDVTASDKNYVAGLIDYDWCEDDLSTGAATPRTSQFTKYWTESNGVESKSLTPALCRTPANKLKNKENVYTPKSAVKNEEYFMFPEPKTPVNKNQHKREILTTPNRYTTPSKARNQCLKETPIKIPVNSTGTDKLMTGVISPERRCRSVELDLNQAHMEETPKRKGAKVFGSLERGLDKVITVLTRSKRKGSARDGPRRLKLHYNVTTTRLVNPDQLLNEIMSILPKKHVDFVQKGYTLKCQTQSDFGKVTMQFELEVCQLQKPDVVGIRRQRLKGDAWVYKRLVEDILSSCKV
Description: as §1, §2

F1t3(h) = F1t3(h) (Homo sapiens, UniProt P36888)
Description: as §1, §2

IKKβ(h) = biological target: T2, IKKβ(h) (Homo sapiens, UniProt O14920)
T2 construct: purchased Millipore
T2 sequence (O14920 1-756): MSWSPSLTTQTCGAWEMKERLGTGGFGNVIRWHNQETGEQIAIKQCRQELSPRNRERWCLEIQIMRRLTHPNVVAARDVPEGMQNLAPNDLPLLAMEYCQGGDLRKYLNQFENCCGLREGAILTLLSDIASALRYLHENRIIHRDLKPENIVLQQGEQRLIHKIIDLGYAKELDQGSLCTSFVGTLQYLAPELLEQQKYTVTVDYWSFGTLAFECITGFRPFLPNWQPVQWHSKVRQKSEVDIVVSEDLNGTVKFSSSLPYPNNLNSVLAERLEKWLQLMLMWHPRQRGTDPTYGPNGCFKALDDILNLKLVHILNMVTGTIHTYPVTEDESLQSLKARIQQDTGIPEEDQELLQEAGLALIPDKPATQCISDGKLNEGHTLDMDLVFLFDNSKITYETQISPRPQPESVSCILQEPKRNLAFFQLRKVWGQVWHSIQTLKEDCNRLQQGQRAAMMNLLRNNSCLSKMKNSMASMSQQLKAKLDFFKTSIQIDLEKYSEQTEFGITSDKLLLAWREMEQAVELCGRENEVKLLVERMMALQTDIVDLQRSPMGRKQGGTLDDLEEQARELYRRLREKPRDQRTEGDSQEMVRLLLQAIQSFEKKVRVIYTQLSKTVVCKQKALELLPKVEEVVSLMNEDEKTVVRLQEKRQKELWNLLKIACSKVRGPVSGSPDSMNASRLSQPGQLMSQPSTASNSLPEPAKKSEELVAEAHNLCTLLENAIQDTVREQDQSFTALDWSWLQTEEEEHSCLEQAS
Description: as §1, §2

TAO3(h) = biological target: T3, TAO3(h) (Homo sapiens, UniProt Q9H2K8)
T3 sequence (Q9H2K8 1-898): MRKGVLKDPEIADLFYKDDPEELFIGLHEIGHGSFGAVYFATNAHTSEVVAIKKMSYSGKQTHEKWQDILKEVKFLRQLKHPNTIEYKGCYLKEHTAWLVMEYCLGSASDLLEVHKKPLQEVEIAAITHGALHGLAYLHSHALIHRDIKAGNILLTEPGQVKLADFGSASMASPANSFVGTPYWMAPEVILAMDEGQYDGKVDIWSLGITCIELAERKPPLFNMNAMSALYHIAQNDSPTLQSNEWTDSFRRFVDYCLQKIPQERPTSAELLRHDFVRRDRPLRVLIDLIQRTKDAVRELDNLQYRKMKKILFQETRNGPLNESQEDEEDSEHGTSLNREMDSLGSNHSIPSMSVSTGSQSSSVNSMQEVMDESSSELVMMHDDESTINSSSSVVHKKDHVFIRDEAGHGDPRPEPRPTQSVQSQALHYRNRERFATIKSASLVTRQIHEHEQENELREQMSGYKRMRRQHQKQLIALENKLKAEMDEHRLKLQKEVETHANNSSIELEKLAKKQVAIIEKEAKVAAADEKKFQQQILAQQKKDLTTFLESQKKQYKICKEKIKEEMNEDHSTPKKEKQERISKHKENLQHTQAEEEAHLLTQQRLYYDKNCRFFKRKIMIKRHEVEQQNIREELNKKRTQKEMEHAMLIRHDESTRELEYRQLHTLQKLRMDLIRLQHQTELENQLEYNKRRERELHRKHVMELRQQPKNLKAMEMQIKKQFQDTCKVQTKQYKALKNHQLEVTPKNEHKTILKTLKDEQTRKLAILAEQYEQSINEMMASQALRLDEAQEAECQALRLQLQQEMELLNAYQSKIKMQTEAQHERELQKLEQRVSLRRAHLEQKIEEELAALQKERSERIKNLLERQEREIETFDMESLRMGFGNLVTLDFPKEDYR
Description: as §1, §2

Sequence | PKCζ(h) % activity (PKCζ(h)) [%] | MELK(h) % activity (MELK(h)) [%] | F1t3(h) % activity (F1t3(h)) [%] | IKKβ(h) % activity (IKKβ(h)) [%] | TAO3(h) % activity (TAO3(h)) [%]
YARAAARQARAKALNRQLGVA (Mammalian) [MMI-0200] | 98 | 59 | 99 |  | 
HRRIKAWLKKIKALARQLGVAA (Mammalian) [MMI-0500] | 7 | 0 | 17 | 71 | 12
KAFAKLAARLYRKALARQLGVAA [MMI-0400] | 75 | 17 | 18 | 84 | 67
FAKLAARLYRKALARQLGVAA [MMI-0300] | 81 | 16 | 84 | 84 | 77
